Key:
[1] = target: TF-glycosylated PDTR MUC1 tandem repeat peptide …-T(TF)-…; test: antigen ELISA on TF-glycosylated PDTR MUC1 peptide, protein A purified antibodies
[2] = target: Tn-glycosylated PDTR MUC1 tandem repeat peptide …-T(Tn)-…; test: antigen ELISA on Tn-glycosylated PDTR MUC1 peptide, protein A purified antibodies
Chain of Tn-glycosylated PDTR MUC1 tandem repeat peptide …-T(Tn)-… (peptide, as listed by the source limits assumed): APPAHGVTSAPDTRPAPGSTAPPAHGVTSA

Chain of TF-glycosylated PDTR MUC1 tandem repeat peptide …-T(TF)-… (peptide, as listed by the source limits assumed): as above

EC50 (read off the curve) [1]: 8 ng/mL
EC50 (read off the curve) [2]: 10 ng/mL
Substance: PankoMab N54W (antibody)

— US20210187118A1
